± gives the uncertainty stated by the source.
Assay: self-splicing fitness, log relative to wild type (ln ratio); higher = more splicing; Tetrahymena group I intron in knt gene, E. coli kanamycin selection, DiMSum; sequences stand for … in CUCUCU…GGAGGGAAAAGUUAUCAGGCAUGCACCUGGUAGCUAGUCUUUAAACCAAUAGAUUGCAUCGGUUUAAAAGGCAAGACCGUCAAAUUGCGGGAAAGGGGUCAACAGCCGUUCAGUACCAAGUCUCAGGGGAAACUUUGAGAUGGCCUUGCAAAGGGUAUGGUAAUAAGCUGACGGACAUGGUCCUAACCACGCAGCCAAGUCCUAAGUCAACAGAUCUUCUGUUGAUAUGGAUGCAGUUCACAGACUAAAUGUCGGUCGGGGAAGAUGUAUUCUUCUCAUAAGAUAUAGUCGGACCUCUCCUUAAUGGGAGCUAGCGGAUGAAGUGAUGCAACACUGGAGCCGCUGGGAACUAAUUUGUAUGCGAAAGUAUAUUGAUUAGUUUUGGAGUACUCGUGGUCG
Outline: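 Six replicate transformations of E. coli BL21(DE3) with a pET-22b(+) library were grown overnight at 37°C or 30°C. The library randomised all eight P1ex-region intron nucleotides, the intron lying in the knt kanamycin-resistance gene, and plates were LB agar with or without 25 μg/mL kanamycin plus 100 μg/mL carbenicillin, 50 μM IPTG and 0.2% rhamnose. Pooled colonies were amplicon-sequenced on an Illumina HiSeq 2500, and fitness is the DiMSum error-weighted combination of wild-type-normalised replicate fold changes, kanamycin versus none.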

Row | Sequence | self-splicing fitness (ln) (30 °C) | self-splicing fitness (ln) (37 °C)
1 | CUGAAGCAAUAUUACGCGAC | -1.46 ± 0.086 | -1.14 ± 0.1
2 | CUGAAGCAAUAUUACGCGGC | -0.11 ± 0.081 | 0.053 ± 0.11
3 | CUGAAGCAAUAUUACGCUAC | -3.7 ± 0.47 | –
4 | CUGAAGCAAUAUUACGGAUG | -2.18 ± 0.1 | -1.14 ± 0.1
5 | CUGAAGCAAUAUUACGGCCC | -1.58 ± 0.48 | –
6 | CUGAAGCAAUAUUACGGGAU | -1.65 ± 0.076 | -1.07 ± 0.11
7 | CUGAAGCAAUAUUACGGGGC | -3.24 ± 0.21 | -2.56 ± 0.27
8 | CUGAAGCAAUAUUACGUAGU | -4.3 ± 0.23 | -3.22 ± 0.26
9 | CUGAAGCAAUAUUACGUCGG | -3.11 ± 0.18 | -1.14 ± 0.16
10 | CUGAAGCAAUAUUACGUCUU | -3.7 ± 0.24 | -2.64 ± 0.25
11 | CUGAAGCAAUAUUACGUUCU | -3.39 ± 0.22 | -3.45 ± 0.37
12 | CUGAAGCAAUAUUACGUUGG | -2.84 ± 0.13 | -1.58 ± 0.13
13 | CUGCAGCAAUAUUACGAGAA | -2.56 ± 0.35 | -2.64 ± 0.33
14 | CUGCAGCAAUAUUACGAGAU | -3.69 ± 0.34 | –
15 | CUGCAGCAAUAUUACGAUGA | -3.75 ± 0.22 | -2.45 ± 0.23
16 | CUGCAGCAAUAUUACGAUGU | -3.96 ± 0.23 | -2.71 ± 0.3
17 | CUGCAGCAAUAUUACGAUUG | -0.725 ± 0.06 | -0.488 ± 0.074
18 | CUGCAGCAAUAUUACGCAUA | -2.84 ± 0.2 | -2.73 ± 0.17
19 | CUGCAGCAAUAUUACGCCAG | -2.56 ± 0.42 | -1.07 ± 0.21
20 | CUGCAGCAAUAUUACGCCAU | -3.9 ± 0.2 | -3.42 ± 0.17
21 | CUGCAGCAAUAUUACGCGCC | -3.33 ± 0.33 | -2.17 ± 0.24
22 | CUGCAGCAAUAUUACGCUCU | -3.52 ± 0.41 | -2.27 ± 0.25
23 | CUGCAGCAAUAUUACGCUUA | -3.04 ± 0.29 | -3.98 ± 0.46
24 | CUGCAGCAAUAUUACGGAAU | -5.11 ± 0.45 | -2.74 ± 0.32
25 | CUGCAGCAAUAUUACGGAGA | -3.35 ± 0.22 | -2.83 ± 0.34
26 | CUGCAGCAAUAUUACGGAGC | -3.93 ± 0.47 | -2.61 ± 0.31

Row | Sequence | self-splicing fitness (ln) (30 °C) | self-splicing fitness (ln) (37 °C)
27 | CUGCAGCAAUAUUACGGCCC | -2.85 ± 0.36 | –
28 | CUGCAGCAAUAUUACGGCGA | -0.954 ± 0.14 | -0.847 ± 0.13
29 | CUGCAGCAAUAUUACGGCGG | -3.57 ± 0.25 | -2.23 ± 0.28
30 | CUGCAGCAAUAUUACGGGAC | -2.53 ± 0.22 | -0.85 ± 0.17
31 | CUGCAGCAAUAUUACGGGGG | -2.95 ± 0.18 | -2.6 ± 0.21
32 | CUGCAGCAAUAUUACGGGUC | -3.51 ± 0.23 | -3.07 ± 0.31
33 | CUGCAGCAAUAUUACGGUGC | -3.97 ± 0.24 | -1.96 ± 0.23
34 | CUGCAGCAAUAUUACGGUUC | -3.41 ± 0.1 | -2.48 ± 0.13
35 | CUGCAGCAAUAUUACGUCCU | -3.82 ± 0.37 | -1.31 ± 0.31
36 | CUGCAGCAAUAUUACGUCGG | -3.32 ± 0.18 | -1.98 ± 0.2
37 | CUGCAGCAAUAUUACGUGAU | -1.19 ± 0.072 | -0.758 ± 0.12
38 | CUGCAGCAAUAUUACGUUAC | -4.46 ± 0.28 | -3.08 ± 0.24
39 | CUGCAGCAAUAUUACGUUGU | -4.62 ± 0.25 | -2.54 ± 0.2
40 | CUGCAGCAAUAUUACGUUUU | -3.97 ± 0.19 | -3.27 ± 0.21
41 | CUGGAGCAAUAUUACGAAAG | -3.51 ± 0.4 | –
42 | CUGGAGCAAUAUUACGACAG | -4.83 ± 0.31 | -2.42 ± 0.49
43 | CUGGAGCAAUAUUACGACGU | – | -1.09 ± 0.2
44 | CUGGAGCAAUAUUACGACUA | -1.37 ± 0.28 | -1.38 ± 0.31
45 | CUGGAGCAAUAUUACGACUG | 0.202 ± 0.15 | 0.00578 ± 0.21
46 | CUGGAGCAAUAUUACGACUU | -3.44 ± 0.38 | -2.38 ± 0.39
47 | CUGGAGCAAUAUUACGAGCG | -1.05 ± 0.094 | -0.179 ± 0.11
48 | CUGGAGCAAUAUUACGCAAU | -3.93 ± 0.33 | -2.08 ± 0.29
49 | CUGGAGCAAUAUUACGCAGA | -3.56 ± 0.37 | –
50 | CUGGAGCAAUAUUACGCCAG | – | -2.59 ± 0.33
51 | CUGGAGCAAUAUUACGCCAU | – | -2.32 ± 0.34
52 | CUGGAGCAAUAUUACGCCCA | – | -2.1 ± 0.5

Row | Sequence | self-splicing fitness (ln) (30 °C) | self-splicing fitness (ln) (37 °C)
53 | CUGGAGCAAUAUUACGCGGG | -3.62 ± 0.33 | -2.33 ± 0.31
54 | CUGGAGCAAUAUUACGCUGG | – | -2.98 ± 0.35
55 | CUGGAGCAAUAUUACGGAUC | -2.82 ± 0.21 | -2.87 ± 0.35
56 | CUGGAGCAAUAUUACGGCGC | – | -1.02 ± 0.41
57 | CUGGAGCAAUAUUACGUAAU | -2.46 ± 0.29 | –
58 | CUGGAGCAAUAUUACGUACU | – | -2.19 ± 0.43
59 | CUGGAGCAAUAUUACGUGGA | -1.96 ± 0.23 | -2.63 ± 0.48
60 | CUGGAGCAAUAUUACGUUGA | -1.67 ± 0.34 | -2.26 ± 0.49
61 | CUGGAGCAAUAUUACGUUUC | -3.92 ± 0.31 | -2.38 ± 0.31
62 | CUGUAGCAAUAUUACGACAU | -1.528 ± 0.014 | -0.616 ± 0.033
63 | CUGUAGCAAUAUUACGACUG | -0.156 ± 0.12 | -0.0808 ± 0.17
64 | CUGUAGCAAUAUUACGAGUU | -2.02 ± 0.3 | -3.02 ± 0.37
65 | CUGUAGCAAUAUUACGAUUC | -3.71 ± 0.23 | -3.19 ± 0.4
66 | CUGUAGCAAUAUUACGGACC | -2.03 ± 0.47 | –
67 | CUGUAGCAAUAUUACGGAUC | -3.93 ± 0.3 | -3.45 ± 0.39
68 | CUGUAGCAAUAUUACGGGAC | -1.04 ± 0.18 | -0.365 ± 0.21
69 | CUGUAGCAAUAUUACGGGCA | – | -2.5 ± 0.49
70 | CUGUAGCAAUAUUACGGGUG | -0.818 ± 0.084 | -1.15 ± 0.099
71 | CUGUAGCAAUAUUACGGUUC | -3.87 ± 0.14 | -3.71 ± 0.22
72 | CUGUAGCAAUAUUACGUAAG | -0.583 ± 0.081 | -0.353 ± 0.082
73 | CUGUAGCAAUAUUACGUAUU | -4.45 ± 0.29 | -3.47 ± 0.33
74 | CUGUAGCAAUAUUACGUUAU | -3.21 ± 0.22 | -2.83 ± 0.23
75 | CUGUAGCAAUAUUACGUUCG | -0.00257 ± 0.13 | 0.798 ± 0.14
76 | CUUAAGCAAUAUUACGAAGC | -3.09 ± 0.36 | -2.17 ± 0.31
77 | CUUAAGCAAUAUUACGAAUC | -2.97 ± 0.23 | –
78 | CUUAAGCAAUAUUACGACAC | -3.04 ± 0.38 | -1.54 ± 0.44

Row | Sequence | self-splicing fitness (ln) (30 °C) | self-splicing fitness (ln) (37 °C)
79 | CUUAAGCAAUAUUACGACCG | 0.42 ± 0.14 | -0.4 ± 0.16
80 | CUUAAGCAAUAUUACGAGAU | -2.92 ± 0.22 | -1.59 ± 0.2
81 | CUUAAGCAAUAUUACGCAAC | -3.55 ± 0.27 | -2.37 ± 0.26
82 | CUUAAGCAAUAUUACGCGCA | -3.58 ± 0.35 | –
83 | CUUAAGCAAUAUUACGCGGC | -2.93 ± 0.24 | -2.48 ± 0.27
84 | CUUAAGCAAUAUUACGCGGG | -2.83 ± 0.2 | -2.92 ± 0.31
85 | CUUAAGCAAUAUUACGGCGU | -3.35 ± 0.2 | -1.89 ± 0.17
86 | CUUAAGCAAUAUUACGGGCA | -3.03 ± 0.23 | -2.3 ± 0.25
87 | CUUAAGCAAUAUUACGGGCG | -0.789 ± 0.13 | -0.48 ± 0.14
88 | CUUAAGCAAUAUUACGGUCA | -3.8 ± 0.46 | -3.15 ± 0.32
89 | CUUAAGCAAUAUUACGGUGU | -3.31 ± 0.22 | -2.02 ± 0.18
90 | CUUAAGCAAUAUUACGUAAG | -2.83 ± 0.1 | -1.27 ± 0.098
91 | CUUAAGCAAUAUUACGUAGU | -3.14 ± 0.13 | -2.3 ± 0.18
92 | CUUAAGCAAUAUUACGUAUG | -1.37 ± 0.056 | -1.24 ± 0.073
93 | CUUAAGCAAUAUUACGUCAU | -4.2 ± 0.26 | -2.84 ± 0.19
94 | CUUAAGCAAUAUUACGUCGA | -1.85 ± 0.19 | -2.19 ± 0.38
95 | CUUAAGCAAUAUUACGUGCA | -2.91 ± 0.19 | -1.34 ± 0.18
96 | CUUAAGCAAUAUUACGUGCG | -1.34 ± 0.079 | -0.172 ± 0.1
97 | CUUAAGCAAUAUUACGUUAA | -3.97 ± 0.39 | -2.63 ± 0.32
98 | CUUAAGCAAUAUUACGUUUC | -3.98 ± 0.17 | -3.23 ± 0.28
99 | CUUCAGCAAUAUUACGAAAU | -2.2 ± 0.31 | -2.4 ± 0.5
100 | CUUCAGCAAUAUUACGAAUA | -2.77 ± 0.14 | -2.09 ± 0.13
101 | CUUCAGCAAUAUUACGACGA | – | -1.54 ± 0.37

Reference: the supplement of paper PMC7877785
